According to the supplement of paper PMC9170038:

Test system: MS2 coat protein
Assay: apparent KD of MS2 coat protein; designed switch direction (-1 OFF switch, 1 ON switch): -1; higher = weaker reporter binding
In short: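 SNAP-549-labelled MS2 coat protein was titrated, doubling from 0.7 or 1.5 nM to 3 µM, over designed RNA switches transcribed on Illumina chips by stalled E. coli RNA polymerase. Runs were done without input, with 200 uM small-molecule ligand, or with an oligonucleotide input. Apparent KD is the per-design median over clusters of curve-fitted normalised fluorescence.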

[1] = input ligand: microRNA oligo, concentration not stated
[2] = Eterna round: R95, input ligand: FMN 200 uM
[3] = Eterna round: R95, input ligand: microRNA oligo, concentration not stated
[4] = Eterna round: R95, input ligand: none

Sequence | apparent KD of MS2 coat protein (input ligand: FMN 200 uM) [nM] | apparent KD of MS2 coat protein [1] [nM] | apparent KD of MS2 coat protein (input ligand: none) [nM] | apparent KD of MS2 coat protein [2] [nM] | apparent KD of MS2 coat protein [3] [nM] | apparent KD of MS2 coat protein [4] [nM]
GUUCGUGGGCAAGGAUAUCCUACGCUGUUCUGGUUCGUGUCUGUCACAUGAGGAUCACCCAUGUGGGAGAAGGUGCAUUUGGGU [Design 57] (Eterna round: R96, puzzle: Exclusion NG 2) | 18.9 | 15.1 | 20.1 | – | – | –
GUUCUGUCAGGAUAUCAAUCCGCCUGUGAUACGCAGGCGGCUGAGAAGGGACAUGAGGAUCACCCAUGUAAAGA [jl-ex4-4.23 ViennaUCT mod] (Eterna round: R97, puzzle: Exclusion 4) | 74 | – | 41.2 | – | – | –
GUUGUUUAUGUAGGAUAUGCCUGGCGUGCCUAAGCAGAAGGACAUGAGGAUCACCCAUGUAUUGCGGUCUGCGUUCAGAUCGCU [salish99_ExNG1_r4_019] (Eterna round: R96, puzzle: Exclusion NG 1) | 36.8 | 17.2 | 23.8 | – | – | –
GUUUACAAGCUAAGAUCCUACAUGAGGAUCACCCAUGUGGUCCGGUGACGUGAGUCACCGGACUUAGCUCGUCUUGA [salish99_S_TOV1_R5_092] (Eterna round: R97, puzzle: Sensor, turn-off variant 1) | 32.4 | – | 31 | – | – | –
GUUUAGCAAGCGAGAUCCCACAUGAGGAUCACCCAUGUGCAUCCAGAAUUACUGGGUGCAAAAGCUCGUCUUAUAUG [mod-El /newdang-1] (Eterna round: R97, puzzle: Sensor, turn-off variant 1) | 71.8 | – | 71.8 | – | – | –
GUUUCACAUGAGGAUCACCCAUGUGAGGAUAUCCAUUUGUUAACCGUAGUUAAUAGAUGGAGAAGGCGCGUGAU [JRxlusion 6 - Jieux - Exclusion 1] (Eterna round: R97, puzzle: Exclusion 1) | 66.6 | – | 62.9 | – | – | –
GUUUCACAUGAGGAUCACCCAUGUGAGGAUAUGUUUUUAAAAGCAAUAGUUUUUGAAAACAGAAGGCGCGUGAU [JR_Exc1_Sub008] (Eterna round: R97, puzzle: Exclusion 1) | 71.6 | – | 60.5 | – | – | –
GUUUCGAGACGGAGAUCCGACAUGAGGAUCACCCAUGUCUCGCAAGCUUUUUGCUCGUCUUAUACUCCUCUGUUCUC [Elimod 46 - Jieux - Sensor, turn-off variant 1] (Eterna round: R97, puzzle: Sensor, turn-off variant 1) | 20.9 | – | 21.9 | – | – | –
GUUUUAUAUGAAGGAUAUACUUAACAUGAGGAUCACCCAUGUGGUGUUGUGAGUGAGUGAGUUUAGUAGAAGGUCAAGUAUUUU [JMF's solution 56] (Eterna round: R96, puzzle: Exclusion NG 2) | 335 | 231 | 319 | – | – | –
GUUUUAUAUGAAGGAUAUACUUAACAUGAGGAUCACCCAUGUGGUGUUGUGAGUGAGUGAGUUUAGUAGAAGGUCAAUUAUUUU [JMF's solution 33] (Eterna round: R96, puzzle: Exclusion NG 2) | 409 | 174 | 184 | – | – | –
GUUUUCAGACGGAGAUCCUACAUGAGGAUCACCCAUGUCUCACAAGCUAAUUGCUCGUCUUAUUCUCCUCUGUUCUC [Elimod 40 - Jieux - Sensor, turn-off variant 1] (Eterna round: R97, puzzle: Sensor, turn-off variant 1) | 21.8 | – | 24.3 | – | – | –
GUUUUGGGAGGAUAUAUGUGGAUAAUUUUUAUAUGAAAUUUACAUGAGGAUCACCCAUGUAGAAGGUCUAGAGC [-18.5, -15.1 kcal, 31% A] (Eterna round: R97, puzzle: Exclusion 2) | 476 | – | 261 | – | – | –
UAAACAUGGAUAUAACAGUACAUGAGGAUCACCCAUGUUAAUAUGAUAAAUUAUAACAAGUUUUUUUGUCGUCUUAA [Feeding at the Trough] (Eterna round: R97, puzzle: Sensor, turn-off variant 1) | 47 | – | 190 | – | – | –
UAAAUGUCAGGAUAUUGUUAAUUUAGUUGUUUGUAUUAGUUCGAGAAGGGACAUGAGGAUCACCCAUGUUAUUU [Ex4 #55] (Eterna round: R97, puzzle: Exclusion 4) | 33.6 | – | 31.9 | – | – | –
UAACUAACUCCUCGGAGCAACAUGAGGAUCACCCAUGUUAUGAACAUUCGGUGUAACAGGAUGUUUGCUCGUCUGGA [Eternabot (Original) Solution 22] (Eterna round: R97, puzzle: Sensor, turn-off variant 1) | 266 | – | 259 | – | – | –
UAACUUUUUGUAAGGAUAUCGGUCCCAAGGGACAACGAGAAGGUACAUGAGGAUCACCCAUGUGAAAUAAGAAU [Mod of Zala 20 - Jieux - Brourd's Mod of Exclusion 4] (Eterna round: R97, puzzle: Brourd's mod of Exclusion 4) | 154 | – | 22.7 | – | – | –
UAAGCAAGCGAAAGAUCCCACAUGAGGAUCACCCAUGUGCUCGUCUUAUAAGGUACUGUGACGAAAGUCACGGUACC [Sensor 3, v1 - 91 v22] (Eterna round: R97, puzzle: Sensor, turn-off variant 1) | 140 | – | 128 | – | – | –
UAAGGUGGUACCAUGAACAUGAGGAUCACCCAUGUACCUUAGAAGGAUAUCGCGACGUGUACGCGCGAGAAGGUCUACAACGUA [Eternabot solution 35] (Eterna round: R96, puzzle: Exclusion NG 3) | 162 | 70.1 | 77.5 | – | – | –
UAAUAACAAGCAGGAUCCUACAUGAGGAUCACCCAUGUGCUCGUCUUAUAAAGUACUAUCACGAAAGUGAUAGUACA [Mat - Sensor v3 - turn-off var 1 - Eli Mod - D70] (puzzle: Sensor v3, turn-off variant 1) | – | – | – | 272 | 148 | 315
UAAUAAUAGCAAGGAUAUAGUUAUUAUAAUAUACUAGAAGGUGCACAUGAGGAUCACCCAUGUUUUAUAAUUUGUAAUUUAAAU [3rd something] (Eterna round: R96, puzzle: Exclusion NG 1) | – | 20.9 | – | – | – | –
UAAUACAAGCAAAGAUCUUACAUGAGGAUCACCCAUGUGCUCGUCUUAUAAAGUACUAUCACGAAAGUGAUAGUACA [Mat - Sensor v3 - turn-off var 1 - Eli Mod - D93] (puzzle: Sensor v3, turn-off variant 1) | – | – | – | 20.4 | 181 | 31.9
UAAUACAAGUAAAGAUCCUACAUGAGGAUCACCCAUGUGCUCGUCUUGUAAAGUACUAUCACGAAAGUGAUAGUACA [Mat - Sensor v3 - turn-off var 1 - Eli Mod - D85] (puzzle: Sensor v3, turn-off variant 1) | – | – | – | 41 | 196 | 53.1
UAAUACAUCUAUGGGAGUAACAUGAGGAUCACCCAUGUAUGUCUUGUUUUUUGUUCGUCAAAGACUUUCUGAUCAGU [JR_SV3TOV1_Sub030] (puzzle: Sensor v3, turn-off variant 1) | – | – | – | 76.7 | 191 | 83.2
UAAUUAAAUGUAGGAUAUCUGCACGUUUAGUGCAGAGAAGGACAUGAGGAUCACCCAUGUAGAUCAAAUUAAAUUAAUUUAAUU [ENG1/5-D2] (Eterna round: R96, puzzle: Exclusion NG 1) | 99.6 | 25.7 | 33.8 | – | – | –
UAAUUUAGUGUGAGGAUAUGCUGGUCGAUAGAUCAGCAGAAGGCACAUGAGGAUCACCCAUGUAAUAUAUUAAA [Mat - Exclusion 4 - JL Mod - D35] (puzzle: Brourd's mod of Exclusion 4) | – | – | – | 218 | 62.4 | 60.2
UACAAGCUUUUAAGAUCCUACAUGAGGAUCACCCAUGUGCUCGUCUUAUAACGUACUGUGACGAAAGUCACGGUACG [JL TOV1 3.21] (Eterna round: R97, puzzle: Sensor, turn-off variant 1) | 92.9 | – | 103 | – | – | –
UACAUGAGGAUCACCCAUGUUUUGUCGUGUAUGGUACCCGUCUAGGAUAUCGUGUUAUUGGACCGCGAGAAGGAGAGUAUCAAU [Excl-NG3-LRO03] (Eterna round: R96, puzzle: Exclusion NG 3) | 26.4 | 20.2 | 33.5 | – | – | –
UACAUGAGGAUCACCCAUGUUUUGUCGUGUAUGGUACCCGUUUAGGAUAUCGUGUUAUUGGACCGCGAGAAGGAGAGUAUCAAU [Excl-NG3-LRO04] (Eterna round: R96, puzzle: Exclusion NG 3) | 26.5 | 22.8 | 29.4 | – | – | –
